Results published in PMC6394990, “Detailed characterization of the solution kinetics and thermodynamics of biotin, biocytin and HABA binding to avidin and streptavidin” (PLoS ONE, 2019).
Several values for one entry are separate records, joined by “and”; a condition that tells them apart may be missing. Identical values can stand only once. Like-named read-outs stand apart in the source and are kept apart here.

Tests used:
[1] = molecular target: T1, avidin (AV) (Gallus gallus, UniProt P02701); conditions: cited from earlier work; for Off rate constants, rate / Off rate constants, ln k: AV; for Off rate constants, rate: in s^-1 (unit assumed); for Off rate constants, ln k: the values are: ln koff
T1 construct: purchased Calbiochem (La Jolla, CA)

[2] = molecular target: T1, avidin (AV); experiment: Stopped-flow association kinetics of dye-labeled biotin probes binding to avidin (F(t), rF(t); Arrhenius plots/global fitting); design: ln(k) / dS+ / dG+ / Eon for BFl / b of the line y = m1x+b1: unit not given here; conditions: forward step from Initial 0, probe not given
Experimental: (§1) These reactions were carried out in a buffered solution of 10 mM Tris-HCl, 100 mM KCl, 2.5 mM MgCl2 and 1 mM CaCl2 at pH 8 and only AV-BcO reactions included pH 9 and 10. The concentrations, after mixing, were of 20 nM of dye-labeled B7 probe and 260 nM, 520 nM or 1040 nM of AV; and 200 nM, 300 nM, 400 nM or 800 nM of SAV at temperatures of 10, 15, 20 and 25°C. The deglycosylation of AV (for comparative association reactions) was carried out using the provided standard protocol with endoglycosidase H [47], both with and without incubation of a denaturant solution (2% SDS and 1M 2-mercaptoethanol).
The reactions were collected with the SF instrument, described previously. The fluorescence signal was collected through a 520 nm interference filter (Oriel Corp., Stratford, CT) with a detector time constant and SF dead time of 1 μs and 1 ms, respectively. The excitation light was provided by the Coherent Ar^+ ion laser (described above) at 488 nm with […] of incident power on the reaction cuvette. The laser source was followed by the photo-elastic modulator described above with the axis oriented 45^o with respect to the electric vector of the incident light and with the half-wave modulation (50 kHz) set for 488 nm excitation. The demodulation circuitry following the photomultiplier provided a DC(t) and a rectified AC(t) which were converted to digital data by a high-speed digitizer (PCI-5122) from National Instruments (Austin, TX) with 14-bit resolution and 100 MHz bandwidth, through channels 0 and 1. The data acquisition was controlled by LabVIEW (Vr 8) software at a collection rate of 6120 data points/second and stored in spreadsheets. The AC(t) and DC(t) data were baseline corrected before obtaining the signal ratio (Eq 4) as a function of time (ρt).
(§2) The constant AGain is the instrumental amplitude gain and was evaluated by solving ρ(t) using the known steady state anisotropy (rss) of the complexes which is equivalent to the r(t) at t = ∞; and H, obtained from the equivalent grating factor (G) for the filters and photo multiplier tubes in the SF. For the probes used in here G was 0.82 and H = (1-G)/(1+G) = 0.099. Knowing Again and H, the AC(t) and DC(t) signals can be solved for r(t) and F(t) (Eqs 4 and 5) and the normalized fluorescence, F¯(t) , and corrected fluorescence anisotropy, rF¯(t), were obtained when F¯(0) and rF¯(0) were scaled to 1 at t = 0.
(§3) The F¯(t) (Eq 6) is equivalent to (I||) + 2 (I⊥) and proportional to quantum yield (QYi), molar absorptivity (εi) and to the formation or disappearance of the emitting species Xi(t); and rF¯(t) including the steady state anisotropies (rss) of each fluorescent species (Eq 7).
(§4) The possible reaction models were discriminated by the squared residuals of the observed and calculated association traces of both fluorescence and anisotropy fluorescence signals, F¯(t) and rF¯(t) , respectively.

[3] = molecular target: T1, avidin (AV); experiment: Literature kinetics, affinity and dissociation (backward) activation parameters; format: binding
[4] = molecular target: T1, avidin (AV); experiment: Literature calorimetry reaction thermodynamics; format: binding; conditions: line without author below the literature lines (average)
[5] = design: method as in PMID 10796986; conditions: cited from earlier work
[6] = molecular target: T1, avidin (AV); conditions: cited from earlier work
[7] = molecular target: T2, streptavidin (SAV) (Streptomyces avidinii, UniProt P22629); experiment: Stopped-flow association kinetics of dye-labeled biotin probes binding to streptavidin (F(t), rF(t); Arrhenius plots/global fitting); conditions: forward step from Initial 0, probe not given
T2 construct: purchased Sigma Aldrich (St. Louis, MO)
Experimental: as §1, with “The concentrations, after mixing, were of 20 nM of dye-labeled B7 probe and 260 nM, 520 nM or 1040 nM of AV; and 200 nM, 300 nM, 400 nM or 800 nM of SAV at temperatures of 10, 15, 20 and 25°C.” left out
The reactions were collected with the SF instrument, described previously. […] The AC(t) and DC(t) data were baseline corrected before obtaining the signal ratio (Eq 4) as a function of time (ρt).
as §2, §3, §4

[8] = molecular target: T2, streptavidin (SAV); experiment: Literature kinetics, affinity and dissociation (backward) activation parameters; format: binding
[9] = molecular target: T2, streptavidin (SAV); experiment: Literature calorimetry reaction thermodynamics; format: binding
[10] = molecular target: T2, streptavidin (SAV); conditions: cited from earlier work; for Off rate constants, rate / Ea from off rate constants: SAV; for Off rate constants, rate: ligand not given, ref klumb paper; for ln(frac bound): rate off SAV
[11] = molecular target: T2, streptavidin (SAV); conditions: cited from earlier work
[12] = free biotin, 43 C, read from a literature plot
[13] = free biotin, 55 C, read from a literature plot
[14] = free biotin, 66 C, read from a literature plot
[15] = line without author below the literature lines
[16] = Enthalpy block, from literature off rates, ref not given
[17] = ligand not given (biotin binding), ref Helppolainen
[18] = Enthalpy block, literature value, ref not given
[19] = Gibbs block, literature value, ref not given
[20] = entropy block, literature value, ref not given
[21] = ligand not given (biotin binding), first Green line, ref Green
[22] = ligand not given (biotin binding), ref Suurkuusk
[23] = ligand not given (biotin binding), second Green line, ref Green
[24] = line without author below the literature lines (average)
[25] = ligand not given (biotin binding), ref Hyre
[26] = ligand not given (biotin binding), ref Klumb
[27] = ligand not given (biotin binding), ref Weber
[28] = ligand not given (biotin binding), ref Green

T2 sequence (P22629 25-183): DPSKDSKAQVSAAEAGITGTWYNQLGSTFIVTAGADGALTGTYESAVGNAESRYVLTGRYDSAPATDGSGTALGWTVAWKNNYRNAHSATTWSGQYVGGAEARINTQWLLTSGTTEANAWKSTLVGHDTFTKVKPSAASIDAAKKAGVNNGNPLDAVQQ
T1 sequence (P02701 25-152): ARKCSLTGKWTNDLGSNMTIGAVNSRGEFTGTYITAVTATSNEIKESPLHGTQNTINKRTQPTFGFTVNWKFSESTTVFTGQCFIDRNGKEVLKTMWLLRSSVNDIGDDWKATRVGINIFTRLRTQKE

For O=C(O)CCCC[C@@H]1SC[C@@H]2NC(=O)N[C@@H]21 [free biotin], the “Off rate constants, rate” value [1, 12] is listed as 5.623e-6, the Off rate constants, ln k [1, 12] is listed as -12.1 and the “Off rate constants, rate” value [1, 13] is listed as 6.31e-5. The Off rate constants, ln k [1, 13] was -9.67, the “Off rate constants, rate” value [1, 14] was 0.0005623 and the Off rate constants, ln k [1, 14] was -7.48.

With “AV: avidin, homo-tetrameric biotin-binding protein, CAS 1405-69-2” the “dG+” value ([2]; Gibbs block) was 4.7, the “dS+” value ([2]; entropy block) was 32.8 and the dSǂ from off rate constants, from transition state teory ([3]; AV) was 31.8 cal/(mol·K). The “TdS*” value ([3]; AV, at 25C) was 1.28E+04, the “dG*” value ([3]; AV, at 25C, from off rates of rhiziavidin-helponainen-2007) was 2.47E+04 and the dS (intercept less ln[RT/Noh), times 1.987) ([3]; AV, from off rate constants) was 43 cal/(mol·K). For the same compound, the “slope intersept, ln A” value ([3]; AV, from off rate constants of rhiziavidin-helponainen-2007) was 45.4, the “sum (Enthalpy: Eon for BFl and dH)” value ([3]; Enthalpy block) was 37.6 and the “sum (Gibbs: dG+ and dG)” value ([3]; Gibbs block) was 25.4. For the same compound, the “sum (entropy: dS+ and dS)” value ([3]; entropy block) was 41.7, the Ea from off rate constants ([3]; for AV, from off rates of rhiziavidin-helponainen-2007) was 37.5 kcal/mol and the Eaoff [3, 15] was 35.6. For the same compound, the “dH + Ea” value [3, 15] was 36.5, the dH [4] was -21.9 kcal/mol and the “thermal stability with bound B7” value [5] was 117 °C and 112 °C. The “thermal stability without bound B7” value [5] was 84 °C, the Off rate constants, ln k ([1]; 43 C, ligand not given, ref rhiziavidin paper) was -14.3 and the Off rate constants, ln k ([1]; 55 C, ligand not given, ref rhiziavidin paper) was -12.2. For the same compound, the Off rate constants, ln k ([1]; 66 C, ligand not given, ref rhiziavidin paper) was -10, the Off rate constants, ln k ([1]; 68 C, ligand not given, ref rhiziavidin paper) was -10.1 and the “Eoff (ave)” value [1, 16] was 37.6. For the same compound, the Eaoff [1, 17] was 35.6, the dH [6, 18] was -23.2 and the dG [6, 19] was -20.7. The dS [6, 20] was -8.9, the TdS [6, 21] was 0 kcal/mol and the dG [6, 21] was -20.5 kcal/mol. The dS [6, 21] was 0, the TdS [6, 22] was -8.9 kcal/mol and the dCp [6, 22] was -237. For the same compound, the dH [6, 22] was -22.5 kcal/mol, the dH ([6]; ligand not given (biotin binding), ref swamy) was -23.4 kcal/mol and the TdS [6, 23] was -2.65 kcal/mol. The dG [6, 23] was -20.75 kcal/mol, the dH [6, 23] was -20.3 kcal/mol and the dS [6, 23] was -8.9.

For “SAV: streptavidin, homo-tetrameric biotin-binding protein, CAS 9013-20-1”, the “dG+” value ([7]; Gibbs block) was 4, the “dS+” value ([7]; entropy block) was 6.7 and the “sum (Enthalpy: Eon for BFl and dH)” value ([8]; Enthalpy block) was 30.8. The “sum (Gibbs: dG+ and dG)” value ([8]; Gibbs block) was 22.2, the “dSǂ from off rate constants, from transition state teory” value ([8]; SAV) was 18.8 and the “TdS*” value ([8]; SAV, at 25C) was 8.94E+03. For the same compound, the “dG*” value ([8]; SAV, at 25C, line names rhiziavidin-helponainen-2007) was 2.14E+04, the “slope intersept, ln A” value ([8]; SAV, from literature off rate constants) was 38.85 and the “dS (intercept less ln[RT/Noh), times 1.987)” value ([8]; SAV, from off rate constants) was 30.0. For the same compound, the “sum (entropy: dS+ and dS)” value ([8]; entropy block) was 27.7, the “dH + Ea” value [8, 15] was 31.8 and the “dS*” value [8, 15] was 0.0195 kcal/mol. It also gave an Eaoff [8, 24] of 29.6, a TdS [9, 15] of -46.0 and a dH [9, 24] of -24.8 kcal/mol. For the same compound, the “thermal stability with bound B7” value [5] was 112 °C and 117 °C, the “thermal stability without bound B7” value [5] was 75 °C and the “Eoff (ave)” value [10, 16] was 29.4. The “Off rate constants, rate” value ([10]; 20 C) was 1.862e-6, the “Off rate constants, rate” value ([10]; 30 C) was 9.12e-6 and the “Off rate constants, rate” value ([10]; 39 C) was 4.467e-5. For the same compound, the “Ea from off rate constants” value ([10]; ref hyre) was 30.4 kcal/mol and 30.4 ± 0.2hyre kcal/mol, the “Ea from off rate constants” value ([10]; ref klumb) was 29.4 kcal/mol and 29.4 ± 0.4klumb kcal/mol and the “Ea from off rate constants” value ([10]; ref rhiziavidin-helponainen-2007) was 29.0 ± 1.0 kcal/mol. The Eaoff [10, 17] was 29, the “TdS*” value [10, 17] was 7.6 kcal/mol and the “dH*” value [10, 17] was 32 kcal/mol. The “dS*” value [10, 17] was 0.0257 kcal/mol, the Eaoff [10, 25] was 29.4 and the “TdS*” value [10, 25] was 5.6 kcal/mol. For the same compound, the “dH*” value [10, 25] was 30.4 kcal/mol, the “dS*” value [10, 25] was 0.0058 kcal/mol and the Eaoff [10, 26] was 30.4. For the same compound, the “dG*” value [10, 26] was 24.6, the “dH*” value [10, 27] was 40 kcal/mol and the “ln(frac bound)” value ([10]; time 13 hr, ref klumb) was -0.19. For the same compound, the “ln(frac bound)” value ([10]; time 22 hr, ref klumb) was -0.36, the “ln(frac bound)” value ([10]; time 36 hr, ref klumb) was -0.47 and the “ln(frac bound)” value ([10]; time 47 hr, ref klumb) was -0.62. For the same compound, the “ln(frac bound)” value ([10]; time 63 hr, ref klumb) was -0.78, the dH [11, 18] was -24.8 and the dG [11, 19] was -18.2. For the same compound, the dS [11, 20] was -21, the TdS [11, 28] was -6.4 and the dG [11, 28] was -18.1 kcal/mol. The dH [11, 17] was -26.7 kcal/mol, the TdS [11, 25] was -13.7 and the dCp [11, 25] was -345. For the same compound, the dG [11, 25] was -18.3 kcal/mol, the dH [11, 25] was -24.5 kcal/mol and the dS [11, 25] was -45.9. For the same compound, the dH [11, 26] was -24.9 kcal/mol, the TdS ([11]; ligand not given (biotin binding), ref Stayton) was -21.5 and the dH [11, 27] was -32 kcal/mol. The dH ([11]; ligand not printed in the sheet (biotin binding), ref Green) was -23 kcal/mol.
